Data as given in patent publication US20230087385A1, “Use of SAA, rSAA or inhibitors of SAA in the treatment of dysregulated inflammation” (LIKA ANTISEPSIS GBR, priority 2020, published 2023).

Key:
neutrophils = assay: Anti-inflammatory potential of SAA on neutrophils (oxidative burst, migration, myeloperoxidase release, O2-release); assay type: cell-based
Experimental: The anti-inflammatory potential of SAA on neutrophils has been confirmed for SAA at reported serum concentrations. […] However, at higher concentrations of more than 50 μg/ml, SAA was stimulating. In addition, O2-release was inhibited up to 0.1 μg/ml, but the O2-release was increased above that. Thus, SAA plays a dual role, it down-regulates inflammatory processes in lower concentration but, during the full APR, the action of SAA can be promoting.

human neutrophils [1] = assay: FMLP-induced oxidative burst of normal human neutrophils; assay type: cell-based; conditions: SAA at 0.1 μg/ml and 1.0 μg/ml
Source text: (§1) This was the first time that a function of SAA was blocked by a monoclonal AA antibody. The monoclonal antibody mc29 used probably also blocks the laminin-like domain (aa 29-33) and may also be participating partially with the RGD-like domain (aa 39-41). In addition, human neutrophils were exposed to full human APS at different temperatures. […] This indicated an irreversible structural change of SAA (or its fragments) during high fever, which is blocking SAA's return to the reversible binding to HDL. (This febrile temperature-that induced the aggregation of AA-antigenic proteins has also been noticed in vitro and documented in FIG. 2 at 38° C. and 40° C.). The possibly unfavorable consequences of these aggregates in humans or animals are unknown today.

human neutrophils [2] = assay: Binding of SAA to human neutrophils
Source text: as §1

[3] = Immunodiffusion of SAA-HDL containing acute phase serum with polyclonal anti-AA at different temperatures; assay type: physicochemical; conditions: added to normal human serum
Experimental: Immunodiffusion (ID) at different temperatures. The ID was performed in 1.5% Seakem Agarose in 0.03 M barbital buffer, pH 8.6 with the same reagents in each of the three plates a 6 wells (A-C). Top and bottom well contained AA (0.1 mg/ml), the middle well contained polyclonal rabbit anti-AA antibodies undiluted and the 4 side wells contained elevated SAA-HDL containing APS from 4 patients at 1/10 diluted. Plate A after diffusion over night at room temperature, plate B at 4° C. over night and plate C first at 4° over night as plate B at 4° C. followed by room temperature for 6 hs similar to plate A.
In FIG. 1A, one recognizes a line of identity of AA with all four patients' sera as if the SAA (probably SAA1 and SAA2) reaction were done with pure SAA. At 4° C. in FIG. 1B, however, there is no reaction with SAA-HDL in serum. This is due to the hiding of the AA-reactive parts of SAA through HDL. […] Therefore, the separation of SAA from HDL is temperature-dependent.

[4] = SAA at reported serum concentrations

## 83-104: SAA peptide aa 83-104 (NEWGRSGKDPNHFRPAGLPEKY; UniProt P0DJI8 101-122, looked up, fragment)
neutrophils
  contribution of SAA peptides to the inhibitory effect on neutrophils: contributed to this inhibitory effect

## aa 1-14: SAA peptide aa 1-14 (RSFFSFLGEAFDGA; UniProt P0DJI8 19-32, looked up, fragment)
neutrophils
  contribution of SAA peptides to the inhibitory effect on neutrophils: contributed to this inhibitory effect

B1: SAA: serum amyloid A protein, 12.5 kDa acute phase protein isolated from human serum (protein)
chain: RSFFSFLGEAFDGARDMWRAYSDMREANYIGSDKYFHARGNYDAAKRGPGGAWAAEVITDARENIQRFFGHGAEDS
Human neutrophils [1]
  FMLP-induced oxidative burst of normal human neutrophils: reduced, concentration-dependently
Human neutrophils [2]
  binding with human neutrophils: Strong binding
neutrophils; [4]
  migration of neutrophils: inhibited
  neutrophil myeloperoxidase release: inhibited
  oxidative burst of neutrophils: inhibited
neutrophils; above 0.1 μg/ml
  O2-release: increased
neutrophils; more than 50 μg/ml
  effect on neutrophils at higher concentrations: stimulating
neutrophils; up to 0.1 μg/ml
  O2-release: inhibited

B2: recombinant SAA2: recombinant serum amyloid A2 protein (SEQ ID NO: 2: human SAA2) (protein, UniProt P0DJI9 19-122, looked up)
Serum amyloid A-2 protein: RSFFSFLGEAFDGARDMWRAYSDMREANYIGSDKYFHARGNYDAAKRGPGGAWAAEVISNARENIQRLTGRGAEDSLADQAANKWGRSGRDPNHFRPAGLPEKY
Human neutrophils [2]
  binding with human neutrophils: Strong binding
[3]
  temperature-dependent immunodiffusion behavior as in FIG. 1: repeat exactly that behavior
